In the supplement of paper PMC9170038:

System: K4 kissing-loop RNA reporter
Test: apparent KD of K4 kissing-loop reporter; higher = weaker reporter binding
Settings: Eterna round: R107
Description: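 RNA-MaP round R107: designed RNA switches with theophylline, tryptophan, arginine or FMN aptamers are transcribed on-chip within common flanks. They are titrated with a labelled K4 kissing-loop RNA reporter in RNA-MaP buffer (100 mM Tris pH 7.5, 80 mM KCl, 4 mM MgCl2), without ligand or with the indicated ligand. Median apparent KD per design.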

[1] = input ligand: theophylline 20 uM
[2] = input ligand: tryptophan 2.4 mM
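Also: bound reporter read as fluorescence of individual clusters on recovered sequencing chips by microscopy, with normalized cluster intensities fitted with a binding model.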

Row | Sequence | apparent KD of K4 kissing-loop reporter (input ligand: FMN 200 uM) [nM] | apparent KD of K4 kissing-loop reporter (input ligand: arginine 13.2 mM) [nM] | apparent KD of K4 kissing-loop reporter (input ligand: none) [nM] | apparent KD of K4 kissing-loop reporter [1] [nM] | apparent KD of K4 kissing-loop reporter [2] [nM]
1 | GGUGUUGUUUGUGCUGUUUUCUUCGUUUCUCGAGGACCGGUACGGCCGCCACUCGAGUGAUGUUUGGGUAGCGAUGUUUGUUAGU [Bdazzled - #3 - Exc. Tryptophan A] | 473 | 287 | 373 | 360 | 470
2 | AGACUACCACACUGUCAAUAGACAGUGGACUAGGAUAUGCUGAUAAGCAGAAGGAGUGAUGUUCCCAGGUAGUCAAUAAAAUAAU [FmnAX 13 G28+C66] | 215 | 205 | 225 | 322 | 246
3 | AAUUAAGUGACGGCCGCCACUAGGGUGAUUUUUUUGUUUGAGUGAUGUUUUGAUGUUUGAUUUUGUAGGACCGGGUUAGGUGAUG [juhmullin] | 332 | 295 | 426 | 404 | 252
4 | UGUACCGAGUCAGGAUAUGGCGUCGAAAGACGAAUCCUAGUGAUGUUAGUGAUCUGCGAAAGCAGUCCAGAAGGGACUUGGUACU [FmnBS 26 U50] | 199 | 321 | 334 | 307 | 344
5 | UUUUAAUGCAGUGAUGUUGCUAAUAAAACAGAGGAUAUGCAUGGAAGCAGAAGGCUGAAAUAUUAUACUUUAAUAAAUUAUAUUU [JR_SSFMNA_Sub010] | 71.2 | 116 | 78.8 | 119 | 66.6
6 | GGAUCCACCAGUGAUGUUGGAGUAAUCUCCAAGGAUAUGACGAAAGUCAGAAGGUGGUAAAUAGACGUCAAAGACGUCGGAUCCA [FmnA 22 #SwitchBubble #K4Early] | 499 | 78.3 | 97.9 | 234 | 69
7 | UGAUAGGACAGAAGGAGCGGUAGUGAUGUUACCAAAAGGGUAAGGUGUCAAAAGACACCCUGCCAGGUAGGUCGCUGUCCUAUCU | 103 | 89.9 | 99.1 | 83.4 | 87
8 | UUGUUUUACUGAAGGAGCGGCAAUUGAUACGUAGAUAUAGUGAUGUUAUAUAAGAUAGAGAGCCAGGUAGGUCGCAGAUGUGUUU [ExArgB.T] | 196 | 205 | 180 | 204 | 149
9 | ACACUUUACGUAGGAUAUGCGACGAGUGAUGUUCGUCAGGCGGCUUUAGAUUAUACAAGCCGCCUAGCAGAAGGACGGGCAGUGU [Araar] | 127 | 157 | 172 | 158 | 170
10 | GCAGUGAUGUUGCGAAUCGGCCAUGAUACAGAGGAUAUCGUGCCUUCGAGAAGGUUGUAUAGAGGAUACGAUAUUAUAAAUGACG [Same State FMN A GF 1] | 353 | 384 | 432 | 436 | 348
11 | GGUAGCAUCGCGGCCGCCACUAAUCGCUAAGGCUCAGGACCCUAAUAGCGAGUGAUGUUCGCCCUUAGGACCGGGCGAUGCUACC | 114 | 93.3 | 101 | 87.5 | 119
12 | AGGCACGAGCAAGGAUAUUGAGUAGAGUGAUGUUCUGCCUGGGUUGGCUCGUAAGAGCCUUCUCAGCGAGAAGGUGCUCGUGCCU [#2 Same State - FMN A Attempt #23 (HarryS)] | 254 | 432 | 679 | 552 | 636
13 | GUACAUUGGAAACAAGAACAAAUAACCGAAGGAGCGCGUGAAAACGCAGGUAGGUCGCGGAAGCAGUGAUGUUGCAUUAGAGAUC [Same State Arginine A GF 16] | 79.2 | 103 | 61.1 | 106 | 60.3
14 | AUAAUAAAGACGGCCGCCACUGAGAGUAGUGAUGUUACUCUUUUCCUUUAGAAAUAAUAUUUUAUCAGGACCGGGUUUUUUGAAU [JR_Nu_ExcTryptoB_Sub026] | 95.3 | 81.1 | 84.8 | 79.6 | 92
15 | GUCCAACCUGGAGGAUAUCUGCUGUCCAGUGAUGUUGGACACCUUAGUAAAGGCCGGGUAGCCCGCAGAGAAGGCCGGAGUUGCC [Isateron] | 265 | 354 | 429 | 390 | 329
16 | GGUAGCAUGGCGGCCGCCACUUGCACUCGUCUUGCAUAUUGGCCUAUGAUAGUAGUGAUGUUACUAAGGACCGGGCCAUGCUACC | 266 | 173 | 194 | 178 | 255
17 | UAUUUAGUGACGGCCGCCACUAUUGUGAUUUAUUUGUUUGAGUGAUGUUUUGAUGUUUGAUUUUGUAGGACCGGGUUAUGUGUUA [awscmullin] | 1080 | 733 | 938 | 804 | 708
18 | AGCUAGUACGCAGGAUAUUGAACAUCAUUUAGUGAGAUCGAGUGAUGUUCGAUCACGACUUCAGUUCGAGAAGGGCGUACUAGCA [#02 K4 FMN B Same State] | 160 | 663 | 931 | 1070 | 861
19 | GUGGAAUUAUGAAAGUGGUUUUAUAAGGAAGGAGCGGCCGAAAGGCCAGGUAGGUCGCCUAUUGACAGUGAUGUUGUUAUAUGGA [#13] | 105 | 180 | 103 | 168 | 75
20 | AUGUACAUUCUCAGUGAUGUUGGGUUGUAACGAGGACCGGUACGGCCGCCACUCGGGAUGUGGUAUAUAGAUGUAUGUGUAGCAU [skye_SS_TA] | 612 | 271 | 446 | 512 | 439
21 | GAUACGAAGCAGUGAUGUUGCUUAUGAGAAGGAGCGCACGAAAGUGCAGGUAGGUCGCUCAGCCAUGUGGACGAAAACGUCCACA [whbob_SS_Arginine_A_sa111] | 90.2 | 109 | 97.4 | 126 | 78.1
22 | GCGAAGAGAGAAGGAUAUUAGUAAUGCGUCAUGCGCCCUUACCAGUUAGUGAUGUUAACAAUACAUUAAGAAGGUCUCGGAAUCC [theeternabot_sameState_KL_FMN_B_50] | 297 | 169 | 187 | 215 | 185
